Data reported in article PMC8266594 (Nucleic Acids Research, 2021).

Biological target: the molecule itself
Test: SAXS

Row | Protein | stoichiometry N
1 | His-RnlA (wild-type RnlA toxin, N-terminally His-tagged) (enzyme) MTIRSYKNLNLVRANIETESRQFIENKNYSIQSIGPMPGSRAGLRVVFTRPGVNLATVDIFYNGDGSTTIQYLTGANRSLGQELADHLFETINPAEFEQVNMVLQGFVETSVLPVLELSADESHIEFREHSRNAHTVVWKIISTSYQDELTVSLHITTGKLQIQGRPLSCYRVFTFNLAALLDLQGLEKVLIRQEDGKANIVQQEVARTYLQTVMADAYPHLHVTAEKLLVSGLCVKLAAPDLPDYCMLLYPELRTIEGVLKSKMSGLGMPVQQPAGFGTYFDKPAAHYILKPQFAATLRPEQINIISTAYTFFNVERHSLFHMETVVDASRMISDMARLMGKATRAWGIIKDLYIV | 2
2 | R255A RnlA, N-terminally His-tagged (enzyme, Escherichia coli, UniProt P52129 1-357, looked up) MTIRSYKNLNLVRANIETESRQFIENKNYSIQSIGPMPGSRAGLRVVFTRPGVNLATVDIFYNGDGSTTIQYLTGANRSLGQELADHLFETINPAEFEQVNMVLQGFVETSVLPVLELSADESHIEFREHSRNAHTVVWKIISTSYQDELTVSLHITTGKLQIQGRPLSCYRVFTFNLAALLDLQGLEKVLIRQEDGKANIVQQEVARTYLQTVMADAYPHLHVTAEKLLVSGLCVKLAAPDLPDYCMLLYPELATIEGVLKSKMSGLGMPVQQPAGFGTYFDKPAAHYILKPQFAATLRPEQINIISTAYTFFNVERHSLFHMETVVDASRMISDMARLMGKATRAWGIIKDLYIV | 2
3 | D245R RnlA, N-terminally His-tagged (enzyme, Escherichia coli, UniProt P52129 1-357, looked up) MTIRSYKNLNLVRANIETESRQFIENKNYSIQSIGPMPGSRAGLRVVFTRPGVNLATVDIFYNGDGSTTIQYLTGANRSLGQELADHLFETINPAEFEQVNMVLQGFVETSVLPVLELSADESHIEFREHSRNAHTVVWKIISTSYQDELTVSLHITTGKLQIQGRPLSCYRVFTFNLAALLDLQGLEKVLIRQEDGKANIVQQEVARTYLQTVMADAYPHLHVTAEKLLVSGLCVKLAAPDLPRYCMLLYPELRTIEGVLKSKMSGLGMPVQQPAGFGTYFDKPAAHYILKPQFAATLRPEQINIISTAYTFFNVERHSLFHMETVVDASRMISDMARLMGKATRAWGIIKDLYIV | 2
4 | RnlAΔ1–91 (TBP2-HEPN) truncated RnlA, N-terminally His-tagged (domain or fragment, Escherichia coli, UniProt P52129 92-357, looked up) INPAEFEQVNMVLQGFVETSVLPVLELSADESHIEFREHSRNAHTVVWKIISTSYQDELTVSLHITTGKLQIQGRPLSCYRVFTFNLAALLDLQGLEKVLIRQEDGKANIVQQEVARTYLQTVMADAYPHLHVTAEKLLVSGLCVKLAAPDLPDYCMLLYPELRTIEGVLKSKMSGLGMPVQQPAGFGTYFDKPAAHYILKPQFAATLRPEQINIISTAYTFFNVERHSLFHMETVVDASRMISDMARLMGKATRAWGIIKDLYIV | 2
